Experiments:
[1] = target: T1, Strep-Tactin M2 streptavidin mutein covalently immobilised on chromatography resin (Streptomyces avidinii, UniProt P22629 38-163, covalently coupled to the resin (CNBr-activated Sephadex G-50, agarose, or epoxy-activated polystyrene)); experiment: loading of Fab on Strep-Tactin Sephadex G50 resin, 20 min at 4 °C
T1 construct: also called immobilized Strep-Tactin; STREP-TACTIN M2 multimer reagent
Procedure: A 50% suspension of Sephadex G50 contained approximately 70 μg of covalently coupled 7 Strep-Tactin®/mL of the bead suspension. Following immobilization of STREP-TACTIN® onto the stationary phase, two mL of the suspension of Sephadex G50 with Strep-Tactin® was incubated with 10 μg of a selection agent specific to a T cell surface selection marker for 20 min at 4° C. in order to allow binding of the Fab fragment to the immobilized Strep-Tactin® reagent. The suspension was then filled in a plastic minicolumn with a 90 micrometer frit at the bottom. The column was equilibrated with PBS (phosphate buffered saline) containing 0.5% bovine serum albumin (PBSA buffer) to give a bed volume of 1 mL.

[2] = target: T2, CD4 on the surface of human T cells (human, UniProt P01730 26-458); experiment: affinity column cell selection from apheresis, surface marker MFI of the collected cells by flow cytometry, 24 h with or without anti-CD3/anti-CD28 oligomeric reagent
T2 construct: whole, on cells; also called selection marker CD4
Procedure: Following immobilization of STREP-TACTIN® onto the stationary phase, two mL of the suspension of Sephadex G50 with Strep-Tactin® was incubated with 10 μg of a selection agent specific to a T cell surface selection marker for 20 min at 4° C. in order to allow binding of the Fab fragment to the immobilized Strep-Tactin® reagent. The suspension was then filled in a plastic minicolumn with a 90 micrometer frit at the bottom. The column was equilibrated with PBS (phosphate buffered saline) containing 0.5% bovine serum albumin (PBSA buffer) to give a bed volume of 1 mL.
As a control, an apheresis sample was loaded onto the anti-CD3 affinity column but without incubation in the presence of the anti-CD3/anti-CD28 oligomeric stimulatory reagent.

B1: anti-CD4 Fab fragment m13B8.2 with Twin Strep-Tag (Fab, V domains shown)
VH: QVQLKQSGPGLVQPSQSLSITCTVSGFSLTTFGVHWVRQSPGKGLEWLGVIWASGITDYNVPFMSRLSITKDNSKSQVFFKLNSLQPDDTAIYYCAKNDPGTGFAYWGQGTLVTVSA
VL: DIQMTQSPASLSASVGETVTFTCRASEMIYSYLAWYQQKQGKSPQLLVHDAKTLAEGVPSRFSGGGSGTQFSLKINTLQPEDFGTYYCQAHYGNPPTFGGGTKLEIKR
[1]
  binding result: binds
[2]
  binding result: binds

From patent US20250237628A1 (JUNO THERAPEUTICS, published 2025)
